The source of these data is patent publication US20240384250A1, “FIBROBLAST GROWTH FACTOR 23 MODULATING COMPOUNDS” (THE UAB RESEARCH FOUNDATION, priority 2021, published 2024).

Entries after “also recorded” stand apart in the source; their conditions may differ.

In this assay the test system is FGF23 and FGFR1c. Description: sKL detection assay (FGF23 coated, Fc-FGFR1c detection). To be noted: for binding in the sKL detection assay, total cell lysates: lysates of stably transfected HEK293T cells; for binding in the sKL detection assay: commercial preparations compared with the sKL protein. It counts as binding. The protocol:
Commercially available ELISA plates (Maxisorp) are coated with 5 μg/ml of recombinant FGF23 protein (R&D Systems) and unspecific binding sites are blocked with BSA/Tween20. Wells are incubated with sKL in solution (which can be plasma, serum or cell culture supernatants) for one hour, washed and incubated for one hour with 750 ng/ml of recombinant FGFR1α(IIIc)-Fc (R&D Systems), which is a chimeric protein consisting of the FGFR1 ectodomain and the Fc region of a human IgG. FGFR1 only binds to FGF23 in the presence of sKL, and the formation of this trimeric sandwich complex is then measured by detecting the presence of the Fc domain that is coupled to FGFR1. To do so, wells are washed and incubated with 400 ng/ml of anti-human IgG conjugated to horseradish peroxidase (HRP; Promega). Wells are washed and incubated with HRP substrate. After development for about 30 minutes, reactions are analyzed on a standard plate reader via absorptions at […]. Incubations with recombinant sKL dissolved in PBS at defined concentrations serve as standards that are used as reference values to determine sKL concentrations in the studied human samples. […]
HEK293 cells were plated in 10 cm dishes supplemented with 10% FBS (26140079, Gibco) and I× Pen/Strep (15140122, Gibco). Cells were transfected with appropriate klotho or green fluorescent protein cDNA constructs. After 2 days, clones were selected by using 1 μg/ml of puromycin (A1113803, Gibco). Cells were then split and plated in 10 cm dishes in DMEM supplemented with FBS and puromycin. After 48 hours, cells were lysed in 1 ml of RIPA buffer with the addition of a protease inhibitor (11873580001, Roche) for 30 minutes. The mixture was then centrifuged at 20,000 g for 1 hour to remove all cell debris. Activity assay was run as above in the sKL halflife study. Instead of serum, 20 μl of the indicated cell lysate was used and combined with 80 μl of activity assay buffer.

B1: sBKL: soluble β-klotho in total lysates of stably transfected HEK293T cells (protein)
chain: MKTGCAAGSPGNEWIFFSSDERNTRSRKTMSNRALQRSAVLSAFVLLRAVTGFSGDGKAIWDKKQYVSPVNPSQLFLYDTFPKNFSWGVGTGAFQVEGSWKTDGRGPSIWDRYVYSHLRGVNGTDRSTDSYIFLEKDLLALDFLGVSFYQFSISWPRLFPNGTVAAVNAQGLRYYRALLDSLVLRNIEPIVTLYHWDLPLTLQEEYGGWKNATMIDLFNDYATYCFQTFGDRVKYWITIHNPYLVAWHGFGTGMHAPGEKGNLTAVYTVGHNLIKAHSKVWHNYDKNFRPHQKGWLSITLGSHWIEPNRTDNMEDVINCQHSMSSVLGWFANPIHGDGDYPEFMKTGAMIPEFSEAEKEEVRGTADFFAFSFGPNNFRPSNTVVKMGQNVSLNLRQVLNWIKLEYDDPQILISENGWFTDSYIKTEDTTAIYMMKNFLNQVLQAIKFDEIRVFGYTAWTLLDGFEWQDAYTTRRGLFYVDFNSEQKERKPKSSAHYYKQIIQDNGFPLKESTPDMKGRFPCDFSWGVTESVLKPEFTVSSPQFTDPHLYVWNVTGNRLLYRVEGVRLKTRPSQCTDYVSIKKRVEMLAKMKVTHYQFALDWTSILPTGNLSKVNRQVLRYYRCVVSEGLKLGVFPMVTLYHPTHSHLGLPLPLLSSGGWLNMNTAKAFQDYAELCFRELGDLVKLWITINEPNRLSDMYNRTSNDTYRAAHNLMIAHAQVWHLYDRQYRPVQHGAVSLSLHCDWAEPANPFVDSHWKAAERFLQFEIAWFADPLFKTGDYPSVMKEYIASKNQRGLSSSVLPRFTAKESRLVKGTVDFYALNHFTTRFVIHKQLNTNRSVADRDVQFLQDITRLSSPSRLAVTPWGVRKLLAWIRRNYRDRDIYITANGIDDLALEDDQIRKYYLEKYVQEALKAYLIDKVKIKGYYAFKLTEEKSKPRFGFFTSDFRAKSSVQFYSKLISSSGLPAENRSPACGQPAEDTDCTICSFLVEKKP
modifications: left off: small tags and cut ends
notes: soluble β-klotho in total lysates of stably transfected HEK293T cells
In the case of B1, the “binding in the sKL detection assay, total cell lysates” value (“binding … total cell lysates” below) is “no measurable binding activity”.

B2: KL1: human klotho domain 1 (KL1) from PeproTech, aa 34-549 (protein)
chain: EPGDGAQTWARFSRPPAPEAAGLFQGTFPDGFLWAVGSAAYQTEGGWQQHGKGASIWDTFTHHPLAPPGDSRNASLPLGAPSPLQPATGDVASDSYNNVFRDTEALRELGVTHYRFSISWARVLPNGSAGVPNREGLRYYRRLLERLRELGVQPVVTLYHWDLPQRLQDAYGGWANRALADHFRDYAELCFRHFGGQVKYWITIDNPYVVAWHGYATGRLAPGIRGSPRLGYLVAHNLLLAHAKVWHLYNTSFRPTQGGQVSIALSSHWINPRRMTDHSIKECQKSLDFVLGWFAKPVFIDGDYPESMKNNLSSILPDFTESEKKFIKGTADFFALCFGPTLSFQLLDPHMKFRQLESPNLRQLLSWIDLEFNHPQIFIVENGWFVSGTTKRDDAKYMYYLKKFIMETLKAIKLDGVDVIGYTAWSLMDGFEWHRGYSIRRGLFYVDFLSQDKMLLPKSSALFYQKLIEKNGFPPLPENQPLEGTFPCDFAWGVVDNYIQVDTTLSQFTDLNVYLW
As for B2, the “binding in the sKL detection assay” value was “cannot mediate FGF23-FGFR1c binding; also recorded: did not show any bioactivity; also recorded: no binding”.

B3: BKL: full-length β-klotho in total lysates of stably transfected HEK293T cells (protein)
chain: MKTGCAAGSPGNEWIFFSSDERNTRSRKTMSNRALQRSAVLSAFVLLRAVTGFSGDGKAIWDKKQYVSPVNPSQLFLYDTFPKNFSWGVGTGAFQVEGSWKTDGRGPSIWDRYVYSHLRGVNGTDRSTDSYIFLEKDLLALDFLGVSFYQFSISWPRLFPNGTVAAVNAQGLRYYRALLDSLVLRNIEPIVTLYHWDLPLTLQEEYGGWKNATMIDLFNDYATYCFQTFGDRVKYWITIHNPYLVAWHGFGTGMHAPGEKGNLTAVYTVGHNLIKAHSKVWHNYDKNFRPHQKGWLSITLGSHWIEPNRTDNMEDVINCQHSMSSVLGWFANPIHGDGDYPEFMKTGAMIPEFSEAEKEEVRGTADFFAFSFGPNNFRPSNTVVKMGQNVSLNLRQVLNWIKLEYDDPQILISENGWFTDSYIKTEDTTAIYMMKNFLNQVLQAIKFDEIRVFGYTAWTLLDGFEWQDAYTTRRGLFYVDFNSEQKERKPKSSAHYYKQIIQDNGFPLKESTPDMKGRFPCDFSWGVTESVLKPEFTVSSPQFTDPHLYVWNVTGNRLLYRVEGVRLKTRPSQCTDYVSIKKRVEMLAKMKVTHYQFALDWTSILPTGNLSKVNRQVLRYYRCVVSEGLKLGVFPMVTLYHPTHSHLGLPLPLLSSGGWLNMNTAKAFQDYAELCFRELGDLVKLWITINEPNRLSDMYNRTSNDTYRAAHNLMIAHAQVWHLYDRQYRPVQHGAVSLSLHCDWAEPANPFVDSHWKAAERFLQFEIAWFADPLFKTGDYPSVMKEYIASKNQRGLSSSVLPRFTAKESRLVKGTVDFYALNHFTTRFVIHKQLNTNRSVADRDVQFLQDITRLSSPSRLAVTPWGVRKLLAWIRRNYRDRDIYITANGIDDLALEDDQIRKYYLEKYVQEALKAYLIDKVKIKGYYAFKLTEEKSKPRFGFFTSDFRAKSSVQFYSKLISSSGLPAENRSPACGQPAEDTDCTICSFLVEKKPLIFFGCCFISTLAVLLSITVFHHQKRRKFQKARNLQNIPLKKGHSRVFS
modifications: left off: small tags and cut ends
notes: full-length β-klotho in total lysates of stably transfected HEK293T cells
Turning to B3, the “binding … total cell lysates” value is on record as “no measurable binding activity”.

B4: Com.sKL: commercial preparation, mouse sKL from R&D Systems (1819KL050), aa 35-982 (protein)
chain: AEPGQGAQTWARFARAPAPEAAGLLHDTFPDGFLWAVGSAAYQTEGGWRQHGKGASIWDTFTHHSGAAPSDSPIVVAPSGAPSPPLSSTGDVASDSYNNVYRDTEGLRELGVTHYRFSISWARVLPNGTAGTPNREGLRYYRRLLERLRELGVQPVVTLYHWDLPQRLQDTYGGWANRALADHFRDYAELCFRHFGGQVKYWITIDNPYVVAWHGYATGRLAPGVRGSSRLGYLVAHNLLLAHAKVWHLYNTSFRPTQGGRVSIALSSHWINPRRMTDYNIRECQKSLDFVLGWFAKPIFIDGDYPESMKNNLSSLLPDFTESEKRLIRGTADFFALSFGPTLSFQLLDPNMKFRQLESPNLRQLLSWIDLEYNHPPIFIVENGWFVSGTTKRDDAKYMYYLKKFIMETLKAIRLDGVDVIGYTAWSLMDGFEWHRGYSIRRGLFYVDFLSQDKELLPKSSALFYQKLIEDNGFPPLPENQPLEGTFPCDFAWGVVDNYVQVDTTLSQFTDPNVYLWDVHHSKRLIKVDGVVAKKRKPYCVDFSAIRPQITLLREMRVTHFRFSLDWALILPLGNQTQVNHTVLHFYRCMISELVHANITPVVALWQPAAPHQGLPHALAKHGAWENPHTALAFADYANLCFKELGHWVNLWITMNEPNTRNMTYRAGHHLLRAHALAWHLYDDKFRAAQKGKISIALQADWIEPACPFSQNDKEVAERVLEFDIGWLAEPIFGSGDYPRVMRDWLNQKNNFLLPYFTEDEKKLVRGSFDFLAVSHYTTILVDWEKEDPMKYNDYLEVQEMTDITWLNSPSQVAVVPWGLRKVLNWLRFKYGDLPMYVTANGIDDDPHAEQDSLRIYYIKNYVNEALKAYVLDDINLCGYFAYSLSDRSAPKSGFYRYAANQFEPKPSMKHYRKIIDSNGFLGSGTLGRFCPEEYTVCTECGFFQTRK
In the case of B4, the “binding in the sKL detection assay” value is listed as “significantly reduced binding”.

B5: KL: full-length klotho in total lysates of stably transfected HEK293T cells (protein, UniProt Q9UEF7 1-1012, looked up)
chain: MPASAPPRRPRPPPPSLSLLLVLLGLGGRRLRAEPGDGAQTWARFSRPPAPEAAGLFQGTFPDGFLWAVGSAAYQTEGGWQQHGKGASIWDTFTHHPLAPPGDSRNASLPLGAPSPLQPATGDVASDSYNNVFRDTEALRELGVTHYRFSISWARVLPNGSAGVPNREGLRYYRRLLERLRELGVQPVVTLYHWDLPQRLQDAYGGWANRALADHFRDYAELCFRHFGGQVKYWITIDNPYVVAWHGYATGRLAPGIRGSPRLGYLVAHNLLLAHAKVWHLYNTSFRPTQGGQVSIALSSHWINPRRMTDHSIKECQKSLDFVLGWFAKPVFIDGDYPESMKNNLSSILPDFTESEKKFIKGTADFFALCFGPTLSFQLLDPHMKFRQLESPNLRQLLSWIDLEFNHPQIFIVENGWFVSGTTKRDDAKYMYYLKKFIMETLKAIKLDGVDVIGYTAWSLMDGFEWHRGYSIRRGLFYVDFLSQDKMLLPKSSALFYQKLIEKNGFPPLPENQPLEGTFPCDFAWGVVDNYIQVDTTLSQFTDLNVYLWDVHHSKRLIKVDGVVTKKRKSYCVDFAAIQPQIALLQEMHVTHFRFSLDWALILPLGNQSQVNHTILQYYRCMASELVRVNITPVVALWQPMAPNQGLPRLLARQGAWENPYTALAFAEYARLCFQELGHHVKLWITMNEPYTRNMTYSAGHNLLKAHALAWHVYNEKFRHAQNGKISIALQADWIEPACPFSQKDKEVAERVLEFDIGWLAEPIFGSGDYPWVMRDWLNQRNNFLLPYFTEDEKKLIQGTFDFLALSHYTTILVDSEKEDPIKYNDYLEVQEMTDITWLNSPSQVAVVPWGLRKVLNWLKFKYGDLPMYIISNGIDDGLHAEDDQLRVYYMQNYINEALKAHILDGINLCGYFAYSFNDRTAPRFGLYRYAADQFEPKASMKHYRKIIDSNGFPGPETLERFCPEEFTVCTECSFFHTRKSLLAFIAFLFFASIISLSLIFYYSKKGRRSYK
modifications: full-length
notes: full-length klotho in total lysates of stably transfected HEK293T cells
With B5, the “binding … total cell lysates” value is “much weaker binding”. Also, the “binding … total cell lysates” value (listed as full-length klotho) is recorded as “negative”.
